The term stoichiometry N denotes a count of units in the complex or per binding partner.

These results are taken from publication PMC6092412.

For assay [1], the target named is FlhF-His6 (Vibrio alginolyticus FlhF with a C-terminal His6 tag) (V. alginolyticus). Description: SEC; purified FlhF kept on ice 10 min with 1 mM GTP; SuperDex 75 Increase in 20 mM Tris-HCl pH 8.0, 300 mM NaCl, 10 mM MgCl2, 1 mM GTP; fractions blotted with anti-FlhF antibody. (In general: SEC sorts molecules by how far they enter the pores of the column.)
For assay [2] the target is unchanged.

In turn, “FlhF-His6 (Vibrio alginolyticus FlhF with a C-terminal His6 tag) (enzyme)” yielded a stoichiometry N in assay [1] of 2.

Regarding “His-tagged FlhG (his6-tev-flhG in pTrcHisB) (enzyme)”, the GTPase activity of FlhF: inorganic phosphate released in 30 min by 1 μM FlhF mixed with 1 μM FlhG (FlhF alone 5.3 μM; background sample 4.3 μM) in assay [2] came out at 8.5 µM.
